Test results: article PMC6053953
Several values for one entry are separate records, joined by “and”; a condition that tells them apart may be missing. Identical values can stand only once.

What was measured:
[1] = target: cleaved human peroxiredoxin 3 (human); assay: native MS; 20 uM protein (monomer) in 100 mM ammonium acetate, pH 8.0; trap collision energy 20 V; step: chains to the dodecameric ring
[2] = target: cleaved human peroxiredoxin 3 (human); assay: AUC; sedimentation velocity, 20 C, 20 uM protein (monomer) in 100 mM ammonium acetate, pH 4.0; c(s) distribution; step: ring-to-ring stacking
[3] = target: cleaved human peroxiredoxin 3 (human); assay: native MS; 20 uM protein (monomer) buffer exchanged from pH 8.0 into 100 mM ammonium acetate, pH 4.0; spectra from 60 seconds (0 hours) to 3 hours after exchange; step: ring-to-ring stacking
[4] = target: cleaved human peroxiredoxin 3 (human); assay: native MS; protein buffer exchanged from 100 mM ammonium acetate, pH 4.0, back into pH 8.0 before injection; step: stacks of rings back to single rings
[5] = target: cleaved human peroxiredoxin 3 (human); assay: SEC-SLS; Superdex 200 Increase 10/300 GL with refractive index and right-angle light scattering, 28 C; 20 uM protein in 100 mM ammonium acetate, pH 8.0; step: chains to the dodecameric ring
[6] = target: His6-tagged human peroxiredoxin 3 (human); assay: native MS; 20 uM protein (monomer) in 100 mM ammonium acetate, pH 8.0; trap collision energy 20 V; step: chains to the dodecameric ring
[7] = target: His6-tagged human peroxiredoxin 3 (human); assay: AUC; sedimentation velocity, 20 C, 20 uM protein (monomer) in 100 mM ammonium acetate, pH 4.0; c(s) distribution; step: ring-to-ring stacking
[8] = target: His6-tagged human peroxiredoxin 3 (human); assay: native MS; 20 uM protein (monomer) buffer exchanged from pH 8.0 into 100 mM ammonium acetate, pH 4.0; spectra from 60 seconds (0 hours) to 3 hours after exchange; step: ring-to-ring stacking
[9] = target: His6-tagged human peroxiredoxin 3 (human); assay: native MS; protein buffer exchanged from 100 mM ammonium acetate, pH 4.0, back into pH 8.0 before injection; step: stacks of rings back to single rings
[10] = target: His6-tagged human peroxiredoxin 3 (human); assay: SEC-SLS; Superdex 200 Increase 10/300 GL with refractive index and right-angle light scattering, 28 C; 20 uM protein in 100 mM ammonium acetate, pH 8.0; step: chains to the dodecameric ring

stoichiometry N [1] | rings in a stack (main population) [2] [rings] | rings in a stack [3] [rings] | rings in the most populated stack [3] [rings] | rings in a stack [4] | stoichiometry N [5] | stoichiometry N [6] | rings in a stack [7] | rings in a stack [8] [rings] | rings in a stack [9] [rings] | stoichiometry N [10] | Substance
12 | 34 | 6 | 3 | 1 rings and 2 rings | 12 | – | – | – | – | – | cleaved human peroxiredoxin 3 (natural protein)
– | – | – | – | – | – | 12 | 2 rings and 4 rings | 2 to 3 | 1 | 12 | His6-tagged human peroxiredoxin 3 (natural protein)
